From the RNAGym collection of RNA variant scans (doi:10.7554/elife.90254) come the findings set out here.

To fix the notation:
B1: LINE1-full (parent)
chain: UACGUAGGUGGUUUUCCCCUGAUAGUGCUAAGGGGGCCUGGAAGUUUGGACUGGGCAGAGCUCAACACAGCGUGGCAAAGUGGCUGUGGCUAGACUGCCUCUCUGGAUUCCUCGUCACUCAGCAGGGCAUCUCUGAGAGAAAUGCC

This data set covers variants of B1. Briefly: self-cleavage, relative activity (ratio to wild type); higher = more cleavage; in vitro, sequencing; the parent is a self-cleaving ribozyme.
As for UACGUAGGUGGUUUUCCCUUGAUAGUGCUAAGGGGGCCUGGAAGUUUGGACUGGGCAGAGCUCAACUCAGCGUGGCAAAGUGGCUGUGGCUAGACUGCCUCUCUGGAUUCCUCGUCACUCAGCAGGGCAUCUCUGAGAGAAAUGCC [C19U A67U], the self-cleavage amounted to 0.1. As for UACGUAGGUGGUUUUCCCUUGAUAGUGCUAAGGGGGCCUGGAAGUUUGGACUGGGCAGAGCUCAACACAGCGUGGCAAAGUGGCUGUGGCUAGACUGCCUCUCUGGGUUCCUCGUCACUCAGCAGGGCAUCUCUGAGAGAAAUGCC [C19U A107G], the figure is 1.41; as for UACGUAGGUGGUUUUCCCUUGAUAGUGCUAAGGGGGCCUGGAAGUUUGGACUGGGCAGAGCUCAACACAGCGUGGCAAAGUGGCUGUGGCUAGACUGCCUCUCUGGUUUCCUCGUCACUCAGCAGGGCAUCUCUGAGAGAAAUGCC [C19U A107U], 1.5.

On to UACGUAGGUGGUUUUCCCUUGAUAGUGCUAAGGGGGCCUGGAAGUUUGGACUGGGCAGAGCUCAACACAGCGUGGCAAAGUGGCUGUGGCUAGACUGCCUCUCUGGAUUCCUCGUCACUCGGCAGGGCAUCUCUGAGAGAAAUGCC [C19U A121G], for which the self-cleavage was found to be 0.42. To UACGUAGGUGGUUUUCCCUUGAUAGUGCUAAGGGGGCCUGGAAGUUUGGACUGGGCAGAGCUCAACACAGCGUGGCAAAGUGGCUGUGGCUAGACUGCCUCUCUGGAUUCCUCGUCACUCUGCAGGGCAUCUCUGAGAGAAAUGCC [C19U A121U] belongs 1.03; to UACGUAGGUGGUUUUCCCGUGAUAGUGCUAAGGGGGCCUGGAAGUUUGGACUGGGCAGAGCUCAACACAGCGUGGCAAAGUGGCUGUGGCUAGACUGCCUCUCUGGAUUCCUCGUCACUCAGCAGAGCAUCUCUGAGAGAAAUGCC [C19G G126A], 0.49; to UACGUAGGUGGUUUUCCCUUGAUAGUGCUAAGGGGGCCUGGAAGUUUGGACUGGGCAGAGCUCAACACAGCGUGGCAAAGUGGCUGUGGCUAGACUGCCUCUCUGGAUUCCUCGUCACUCAGCUGGGCAUCUCUGAGAGAAAUGCC [C19U A124U], 0.76. To UACGUAGGUGGUUUUCCCUUGAUAGUGCUAAGGGGGCCUGGAAGUUUGGACUGGGCAGAGCUCAACACAGCGUGGCUAAGUGGCUGUGGCUAGACUGCCUCUCUGGAUUCCUCGUCACUCAGCAGGGCAUCUCUGAGAGAAAUGCC [C19U A77U] belongs 1.3; to UACGUAGGUGGUUUUCCCGUGAUAGCGCUAAGGGGGCCUGGAAGUUUGGACUGGGCAGAGCUCAACACAGCGUGGCAAAGUGGCUGUGGCUAGACUGCCUCUCUGGAUUCCUCGUCACUCAGCAGGGCAUCUCUGAGAGAAAUGCC [C19G U26C], 1.2; to UACGUAGGUGGUUUUCCCAUGAUAGUGCUAAGGGGGCCUGGAAGUUUGGACUGGGCAGAGCUCAACACAGCGUGGCAGAGUGGCUGUGGCUAGACUGCCUCUCUGGAUUCCUCGUCACUCAGCAGGGCAUCUCUGAGAGAAAUGCC [C19A A78G], 1.53. As for UACGUAGGUGGUUUUCCCAUGAUAGUGCUAAGGGGGCCUGGAAGUUUGGACUGGGCAGAGCUCAACACAGCGUGGCAAAGUGGCUGUGGCUAGACUGCCUCUCUGGAUUCCUCGUCACUCAGCAGGGCAUCUCUGAGAGAAGUGCC [C19A A142G], the figure is 1.3. Consider UACGUAGGUGGUUUUCCCUUGAUAGUGCUAAGGGGGCCUGGAAGUUUGGACUGGGCAGAGCUCAACACGGCGUGGCAAAGUGGCUGUGGCUAGACUGCCUCUCUGGAUUCCUCGUCACUCAGCAGGGCAUCUCUGAGAGAAAUGCC [C19U A69G], for which the self-cleavage was 0.77.

In the case of UACGUAGGUGGUUUUCCCAUGAUAGUGCUAAGGGGGCCUGGAAGUUUGGACUGGGCAGAGCUCAACACAGCGUGGCAAAGUGGCUGUGGCUAGACUGCCUCUCUGGAUUCCUCGUCACUCAGCAGGGCAUCUCUGAGGGAAAUGCC [C19A A138G], the self-cleavage turned out to be 0.72. As for UACGUAGGUGGUUUUCCCAUGAUAGUGCUAAGGGGGCCUGGAAGUUUGGACUGGGCAGAGCUCAACACAGCGUGGCAAAGUGGCUGUGGCUAGACUGCCUCUCUGGAUUCCUCGUCACUCAGCAGGGCAUCUCUGAGCGAAAUGCC [C19A A138C], the self-cleavage was 1.07. On to UACGUAGGUGGUUUUCCCAUGAUAGUGCUAAAGGGGCCUGGAAGUUUGGACUGGGCAGAGCUCAACACAGCGUGGCAAAGUGGCUGUGGCUAGACUGCCUCUCUGGAUUCCUCGUCACUCAGCAGGGCAUCUCUGAGAGAAAUGCC [C19A G32A], for which the self-cleavage came out at 0.91. For UACGUAGGUGGUUUUCCCAUGAUAGUGCUAAGGGGGCCUGGAAGUUUGGACUGGGCAGAGCUCAACACAGCAUGGCAAAGUGGCUGUGGCUAGACUGCCUCUCUGGAUUCCUCGUCACUCAGCAGGGCAUCUCUGAGAGAAAUGCC [C19A G72A], the self-cleavage stood at 1.07.

Take UACGUAGGUGGUUUUCCCAUGAUAGUGCUAAGGGGGCCUGGAAGUUUGGACUGGGCAGAGCUCAACACAGCGUGGCAAAGUGGCUGUGGCUAGACUGCCUCUCUGGAUUCCUCGUCACUCAGCAGGGUAUCUCUGAGAGAAAUGCC [C19A C128U]: the self-cleavage was 1.08.

On to UACGUAGGUGGUUUUCCCUUGAUAGUGCUAAGGGGGCCUGGAAGUUUGGACUGGGCAGAGCUCAACACAGCGUGGCAUAGUGGCUGUGGCUAGACUGCCUCUCUGGAUUCCUCGUCACUCAGCAGGGCAUCUCUGAGAGAAAUGCC [C19U A78U], for which the self-cleavage was 1.72. As to UACGUAGGUGGUUUUCCCUUGAUAGUGCUAAGGGGGCCUGGAAGUUUGGACUGGGCAGAGCUCAACACAGCGUGGCACAGUGGCUGUGGCUAGACUGCCUCUCUGGAUUCCUCGUCACUCAGCAGGGCAUCUCUGAGAGAAAUGCC [C19U A78C], the self-cleavage was 1.71.

As to UACGUAGGUGGUUUUCCCUUGAUAGUGCUAAGGGGGCCUGGAAGUUUGGACUGGGCAGAGCUCAACACAGCGUGGCAAAGUGGCUGUGGCUAGACUGCCUCUCUGGAUUCCUCGUCACUCAGCAGGGCUUCUCUGAGAGAAAUGCC [C19U A129U], the self-cleavage was found to be 1.84. As for UACGUAGGUGGUUUUCCCUUGAUAGUGCUAAGGGGGCCUGGAAGUUUGGACUGGGCAGAGCUCAACACAGCGUGGCAAAGUGGCUGUGGCUAGACUGCCUCUCUGGAUUCCUCGUCUCUCAGCAGGGCAUCUCUGAGAGAAAUGCC [C19U A117U], the figure is 1.28; as for UACGUAGGUGGUUUUCCCGUGAUAGUGCUAAGGGGGCCUGGGAGUUUGGACUGGGCAGAGCUCAACACAGCGUGGCAAAGUGGCUGUGGCUAGACUGCCUCUCUGGAUUCCUCGUCACUCAGCAGGGCAUCUCUGAGAGAAAUGCC [C19G A42G], 1.41; as for UACGUAGGUGGUUUUCCCUUGGUAGUGCUAAGGGGGCCUGGAAGUUUGGACUGGGCAGAGCUCAACACAGCGUGGCAAAGUGGCUGUGGCUAGACUGCCUCUCUGGAUUCCUCGUCACUCAGCAGGGCAUCUCUGAGAGAAAUGCC [C19U A22G], 1.18. As for UACGUAGGUGGUUUUCCCUUGAUAGUGCUAAGGGGGCCUGGAAGUUUGGACUGGGCAGAGCUCAGCACAGCGUGGCAAAGUGGCUGUGGCUAGACUGCCUCUCUGGAUUCCUCGUCACUCAGCAGGGCAUCUCUGAGAGAAAUGCC [C19U A65G], the figure is 0.14; as for UACGUAGGUGGUUUUCCCAUGAUAGUGCUAAGGGGGCCUGGAAGUUUGGACUGGGCAGAGCUCAACACAGCGUGGCAAAGUGGCUGUGGCUAGACUGCCUCUCUGGACUCCUCGUCACUCAGCAGGGCAUCUCUGAGAGAAAUGCC [C19A U108C], 1.46. As for UACGUAGGUGGUUUUCCCAUGAUAGUGCUAAGGGGGCCUGGAAGUUUGGACUGGGCAGAGCUCAACACAGCGUGGCAAAGUGGCUGUGGCUAGACUGCCUCUCUGGAUUCCUCGUCACUCAGCGGGGCAUCUCUGAGAGAAAUGCC [C19A A124G], the figure is 0.58. As for UACGUAGGUGGUUUUCCCAUGAUAGUGCUAAGGGGGCCUGGAAGUUUGGACUGGGCAGGGCUCAACACAGCGUGGCAAAGUGGCUGUGGCUAGACUGCCUCUCUGGAUUCCUCGUCACUCAGCAGGGCAUCUCUGAGAGAAAUGCC [C19A A59G], the self-cleavage amounted to 0.13. As for UACGUAGGUGGUUUUCCCUUGAUAGUGCUAAGGGGGCCUGGAAGUUUGGACUGGGCAGAGCUCAACACAGCGUGGCAAAGUGGCUGUGGCUAGACUGCCUCUCUGGAUUCCUCGUCACUCAGCAGGGCAUCUCUGAGAGAAAUGCC [C19U], the figure is 1.21; as for UACGUAGGUGGUUUUCCCGUGAUAGUGCUAAGGGGGCCUGGAAGUUUGGACUGGGCAGAGCUCAACACAGCGUGGCAAAGUGGCUGUGGCUAGACUGCCUCUCUGGAUUCCUCGUCACUCAGCAGGGCAUCUCUGAGAGAAAUGCC [C19G], 0.35. To UACGUAGGUGGUUUUCCCGUGAUAGUGCUAAGGGGGCCUGGAAGUUUGGACAGGGCAGAGCUCAACACAGCGUGGCAAAGUGGCUGUGGCUAGACUGCCUCUCUGGAUUCCUCGUCACUCAGCAGGGCAUCUCUGAGAGAAAUGCC [C19G U52A] belongs 1.16. UACGUAGGUGGUUUUCCCAUGAUAGUGCUAAGGGGGCCUGGAAGUUUGGACUGGGCAGAGCCCAACACAGCGUGGCAAAGUGGCUGUGGCUAGACUGCCUCUCUGGAUUCCUCGUCACUCAGCAGGGCAUCUCUGAGAGAAAUGCC [C19A U62C]: the self-cleavage came to 0.28. As for UACGUAGGUGGUUUUCCCAUGAUAGUGCUAAGGGGGCCUGGAAGUUUGGACUGGGCAGAGCUCAACACAGCGUGGCGAAGUGGCUGUGGCUAGACUGCCUCUCUGGAUUCCUCGUCACUCAGCAGGGCAUCUCUGAGAGAAAUGCC [C19A A77G], the self-cleavage was determined as 2.71. As to UACGUAGGUGGUUUUCCCAUGAUAGAGCUAAGGGGGCCUGGAAGUUUGGACUGGGCAGAGCUCAACACAGCGUGGCAAAGUGGCUGUGGCUAGACUGCCUCUCUGGAUUCCUCGUCACUCAGCAGGGCAUCUCUGAGAGAAAUGCC [C19A U26A], the self-cleavage amounted to 1.16.

With UACGUAGGUGGUUUUCCCAUGAUAGUGCUAAGGGGGCCUGGAAGUUUGGGCUGGGCAGAGCUCAACACAGCGUGGCAAAGUGGCUGUGGCUAGACUGCCUCUCUGGAUUCCUCGUCACUCAGCAGGGCAUCUCUGAGAGAAAUGCC [C19A A50G], the self-cleavage was 1.48. For UACGUAGGUGGUUUUCCCUUGAUAGUGCUAAGGGGGCCUGGAUGUUUGGACUGGGCAGAGCUCAACACAGCGUGGCAAAGUGGCUGUGGCUAGACUGCCUCUCUGGAUUCCUCGUCACUCAGCAGGGCAUCUCUGAGAGAAAUGCC [C19U A43U], the self-cleavage came out at 1.41. To UACGUAGGUGGUUUUCCCGUGAUAGUGCUAAGGGGGCCUGGAAGUUUGGACUGGGCAGAGCUCAACACAGCGUGGCGAAGUGGCUGUGGCUAGACUGCCUCUCUGGAUUCCUCGUCACUCAGCAGGGCAUCUCUGAGAGAAAUGCC [C19G A77G] belongs 2.07. To UACGUAGGUGGUUUUCCCAUGAUAGUGCUAAGGGGGCCUGGAAGUUUGGACUGGGCAGAGCUCAACACAGCGUGGCAAAGUGGCGGUGGCUAGACUGCCUCUCUGGAUUCCUCGUCACUCAGCAGGGCAUCUCUGAGAGAAAUGCC [C19A U85G] belongs 0.13. Regarding UACGUAGGUGGUUUUCCCACGAUAGUGCUAAGGGGGCCUGGAAGUUUGGACUGGGCAGAGCUCAACACAGCGUGGCAAAGUGGCUGUGGCUAGACUGCCUCUCUGGAUUCCUCGUCACUCAGCAGGGCAUCUCUGAGAGAAAUGCC [C19A U20C], the self-cleavage was 1.04.

For UACGUAGGUGGUUUUCCCAUGAUAGUGCUAAGGGGGCCUGGAAGUUUGGACUGGGCAGAGCUCAACACAGCGUGGCAAAGUGGCUGUGGCUAGACUGCCUCUCCGGAUUCCUCGUCACUCAGCAGGGCAUCUCUGAGAGAAAUGCC [C19A U104C], the self-cleavage worked out at 1.14.
